To fix the notation:
B1: R-30 (VHH)
VHH: QVQLQESGGGLVQSGGSLRLSCTASGGIIRLNSMGWYRQAPGKQREPVATIVSDVGTNYADSVKGRFTISRDNAKNTIYLQMNSLKFEDTAVYYCVADRAFVLRGEYEYWGQGTQVTVSS
notes: also called 第一株RBD纳米抗体R-30
B2: S1-24 (VHH)
VHH: B1 VHH with T23A, I28V, I29S, P41Q, P47L, S53N, K75A, I78V, Q81L, Y94N
notes: also called 第四株RBD纳米抗体S1-24
B3: S1-51 (VHH)
VHH: B1 VHH with T23A, I28V, I29S, P47L, V52I, K75A, I78V
notes: also called 第三株RBD纳米抗体S1-51
B4: S1-28 (VHH)
VHH: B1 VHH with S14P, L85P
notes: also called 第二株RBD纳米抗体S1-28

Positions count from the first letter of the chain named.

The target of one assay is T1, 野生型SARS-CoV-2 S1抗原 (SARS-CoV-2, UniProt P0DTC2 16-685).
T1 construct: domain: S1; also called SARS-CoV-2S1野生型; S1抗原(义翘)
In words: SPR, Biacore T200, antigen coupled to CM5 chip, nanobody as analyte. Background: Surface plasmon resonance follows binding to a sensor surface in real time, without labels.
One may read the Kd as the equilibrium constant for the complex coming apart. Molecule B1 registered a Kd of about 0.1 nM.

Turning to B2, the equilibrium dissociation constant (Kd) was about 0.1 nM.

B3 came in with a Kd of about 0.1 nM.

In turn, B4 had a dissociation constant Kd of about 0.1 nM.

A further assay concerns the target T2, 非典SARS-CoV-1 spike RBD (SARS-CoV-1, UniProt P59594 306-527).
T2 construct: domain: RBD; also called 非典病毒RBD; 非典SARS-CoV-1RBD
In words: ELISA on coated antigen, anti HA HRP. (In general: In an ELISA, binding on a coated surface is turned into a signal by an enzyme label.)
The term EC50 denotes the concentration that produces a half-maximal response. B1 showed an EC50 of 14.7 nM.

B2 came in with a concentration for a half-maximal effect (EC50) of 49.3 nM.

B3 returned an EC50 of 19.2 nM.

Molecule B4 gave an EC50 of 11.4 nM.
